Patent publication US20080089862

Test system: engineered beta-galactosidase reporter protein with the NS3-cleavable NS5A/B site between residues 2

Substance	β-galactosidase units (ONPG hydrolysis, Miller units), pEB13-lacZ-NS5A/B + pMALc-NN-scNS3 [Miller units]	β-galactosidase units (ONPG hydrolysis, Miller units), pMGT14 [Miller units]	β-galactosidase units (ONPG hydrolysis, Miller units), pMGT15 [Miller units]
MBP-scNS3 (E. coli maltose binding protein fused to the NS4A peptide followed by the NS3 protease domain)	20	60	
MBP-scNS3mut (inactive mutant S-1165-A NS3)			160
